Measured values from PMC9549473, “Triple-FRET multi-purpose fluorescent probe for three-protease detection” (RSC Advances, 2022).
Non-standard residues stand in square brackets, D forms with d. Residues, ends and D or L forms follow the SMILES beside them. Groups on a side chain read outwards from the residue. *: point of attachment. RhodamineB = CCN(CC)c1ccc2c(-c3ccccc3C(=O)*)c3ccc(=[N+](CC)CC)cc-3oc2c1; X1 = CC[N+](CC)=c1ccc2c(-c3ccccc3C(=O)*)c3c(oc-2c1)-c1ccc(N(C)C)cc1CC3; X3 = CCN(CC)c1ccc2cc(C(=O)N[C@@H](CCCCN*)C(=O)O)c(=O)oc2c1; X2 = O=C(c1ccccc1-c1c2ccc(=O)cc-2oc2cc(O)ccc12)*; AEEA = NCCOCCOCC(=O)O; Sar = CNCC(=O)O

Experiments:
[1] = Storage stability of the solid, LC-MS; type: physicochemical; details: solid powder stored at −80 °C; dissolved to 50 μM in Tris–HCl pH 8.0 and analysed by LC-MS, repeated over 30 days
Protocol: The isolated 4-dye substrate (1) was characterized by LC-MS analysis and HRMS. Its final purity was determined based on LC-MS analysis, testing different analytical columns, mobile phases, gradients and elution times (ESI – Fig. S6 and S7 ^†). For stability testing, the 4-dye probe (1) in the form of powder (stored at −80 °C) was dissolved in an appropriate volume of Tris–HCl buffer (pH = 8.0) to obtain a 50 μM solution and subsequently analyzed by LC-MS. This process was repeated a few times over 30 days.
Due to its size and complexity, the 4-dye probe (1) was also briefly examined from the solubility in aqueous media point of view. It turned out that at least 0.5 mM stock solution of the target substrate (1) in Tris–HCl buffer (pH = 8.0) could be promptly and efficiently prepared. For comparison, a solution of a hundredfold lower concentration (5 μM) of the 4-dye probe (1) in the same buffer media was utilized in the biological assays. The relatively high solubility of the substrate (1) could be attributed to its structure (Fig. 1), comprising six polyethylene glycol-based (PEG) spacers and two charged fluorophores (Rhodamine B and HN6). Moreover, three terminal carboxyl groups of the peptide backbone are instantly turned into corresponding carboxylate salts in a basic buffer environment, contributing to the solubility of the 4-dye probe (1) in aqueous media. […]

[2] = target: T1, α-chymotrypsin (bovine pancreas, TLCK treated, type VII) (Bos taurus, UniProt P00766); experiment: Single protease detection with the triple-FRET 4-dye probe: chymotrypsin; type: biochemical; details: 5 μM probe, Tris–HCl pH 8.0, 37 °C, 45 min, λexc 425 nm, three parallels
T1 construct: α-chymotrypsin (bovine pancreas, TLCK treated, type VII, ≥40 units per mg protein); purchased Sigma-Aldrich (Steinheim, Germany); host or cells: bovine pancreas (tissue-derived)
Description: (§1) Trypsin (bovine pancreas, TPCK treated, ≥10 000 BAEE units per mg protein) and α-chymotrypsin (bovine pancreas, TLCK treated, type VII, ≥40 units per mg protein) were ordered from Sigma-Aldrich (Steinheim, Germany). Caspase-8 (human, recombinant, active, 5000 units per mg protein) was provided by Enzo Life Sciences, Inc. (New York, USA). All enzyme species were obtained in the form of lyophilized white to off-white powders. They were reconstituted according to the providers' instructions, aliquoted in Eppendorf tubes, and finally stored at −80 °C in a deep freezer (Arctiko, Esbjerg Kommune, Denmark). […]
(§2) The appropriate amount of the 4-dye probe (1) was dissolved in 950 μL of Tris–HCl buffer. […] Afterwards, the fluorescence emission spectrum upon excitation with the light source of 425 nm was measured at the time 0 using a fluorescence spectrometer (Cary Eclipse, Agilent Technologies, Santa Carla, CA, USA). […] Fluorescence emission responses were then repeatedly measured at the times 2, 5, 8, 12, 16, 20, 25, 30, 35, 40, and 45 min. During the entire period of the experiment, a fluorimeter cuvette was placed in a cell holder preheated to 37 °C, and located inside a fluorescence spectrometer.
(§3) Additionally, the rules for individual protease recognition could be graphically presented, using fluorescence emission ratios of suitable fluorophores measured at particular times. […]

[3] = Solubility in aqueous media (Tris–HCl buffer); type: physicochemical; details: Tris–HCl buffer pH 8.0, from solid, read-out: solubility: stock solution that could be promptly and efficiently prepared
Protocol: Due to its size and complexity, the 4-dye probe (1) was also briefly examined from the solubility in aqueous media point of view. It turned out that at least 0.5 mM stock solution of the target substrate (1) in Tris–HCl buffer (pH = 8.0) could be promptly and efficiently prepared. For comparison, a solution of a hundredfold lower concentration (5 μM) of the 4-dye probe (1) in the same buffer media was utilized in the biological assays. The relatively high solubility of the substrate (1) could be attributed to its structure (Fig. 1), comprising six polyethylene glycol-based (PEG) spacers and two charged fluorophores (Rhodamine B and HN6). Moreover, three terminal carboxyl groups of the peptide backbone are instantly turned into corresponding carboxylate salts in a basic buffer environment, contributing to the solubility of the 4-dye probe (1) in aqueous media. Afterwards, its stability was taken into consideration. The dark blue powder obtained after freeze-drying was dissolved in an appropriate volume of Tris–HCl buffer (pH = 8.0), and shortly after that, LC-MS analysis was performed. The process was repeated a few times within one month.

[4] = target: T2, chymotrypsin (Bos taurus, UniProt P00766); experiment: LC-MS analysis of the probe cleaved by chymotrypsin; type: biochemical, bovine; details: LC-MS of cleavage fragments; chymotrypsin 2.5 µg/mL, 2 hours
T2 construct: α-chymotrypsin (bovine pancreas, TLCK treated, type VII, ≥40 units per mg protein); purchased Sigma-Aldrich (Steinheim, Germany); host or cells: bovine pancreas (tissue-derived)
Protocol: (§4) Following the successful development of the methodology for the separate detection of individual proteases in a sample, we decided to investigate and evaluate the possibilities of simultaneous detection of multiple enzymes. […] Consequently, some potential ambiguities and drawbacks were expected from the perspective of nonspecific cleavage of the 4-dye substrate 1 by chymotrypsin. The experiments of the two-enzyme detection were performed with all three theoretically possible pairs of the considered proteases in their low concentrations.
Figure S10: LC-MS analysis of the 4-dye probe cleaved by chymotrypsin (2.5 µg/mL, 2 hours).
Fragment 1 (Rt = 1.46 min) […]

[5] = target: T3, trypsin (Bos taurus, UniProt P00760); experiment: LC-MS analysis of the probe cleaved by trypsin; type: biochemical, bovine; details: LC-MS of cleavage fragments
T3 construct: Trypsin (bovine pancreas, TPCK treated, ≥10 000 BAEE units per mg protein); purchased Sigma-Aldrich (Steinheim, Germany); host or cells: bovine pancreas (tissue-derived)
T3 sequence (P00760 24-246): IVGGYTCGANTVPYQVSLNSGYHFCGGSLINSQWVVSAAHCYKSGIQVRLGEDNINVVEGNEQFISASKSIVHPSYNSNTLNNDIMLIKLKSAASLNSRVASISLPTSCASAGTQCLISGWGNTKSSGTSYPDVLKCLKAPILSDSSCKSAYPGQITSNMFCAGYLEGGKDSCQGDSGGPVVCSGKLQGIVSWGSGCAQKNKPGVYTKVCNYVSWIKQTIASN
Protocol: as §4

[6] = Stability in buffer solution without enzyme (fluorescence responses, blank sample); type: physicochemical; details: no enzyme, 5 μM probe, λexc 425 nm
Protocol: Enzyme assays were carried out in 0.1 M Tris–HCl buffer solution in ultrapure water, with the addition of NaCl (25 mM), EDTA (5 mM) and glycerol (2.5% v/v). The pH of the media (pH = 8.0) was adjusted by gradual dropwise addition of concentrated NaOH aqueous solution.
The appropriate amount of the 4-dye probe (1) was dissolved in 950 μL of Tris–HCl buffer. The resulting solution was placed into a plastic fluorimeter cuvette and preheated to 37 °C. Afterwards, the fluorescence emission spectrum upon excitation with the light source of 425 nm was measured at the time 0 using a fluorescence spectrometer (Cary Eclipse, Agilent Technologies, Santa Carla, CA, USA). Then 20 μL of 1 mM HCl with/without enzyme (trypsin or chymotrypsin) and 30 μL of physiological saline solution with/without enzyme (caspase-8) were added, resulting in a final volume of 1 mL of 5 μM 4-dye substrate (1). In the case of caspase-8, DL-dithiothreitol (10 mM) was also present in a buffer. Fluorescence emission responses were then repeatedly measured at the times 2, 5, 8, 12, 16, 20, 25, 30, 35, 40, and 45 min. During the entire period of the experiment, a fluorimeter cuvette was placed in a cell holder preheated to 37 °C, and located inside a fluorescence spectrometer.
As the three target proteases, trypsin, chymotrypsin, and caspase-8 were considered. […] During the biological testing, the emission responses of all four dyes were monitored throughout the entire period of the experiment. The assay conditions and parameters were established based on our practical observations, theoretical facts, and previous experience.[12,28,29] To obtain a uniform incubation medium suitable for all three proteases detection, the appropriate conditions for trypsin and chymotrypsin sensing were combined with those suitable for caspase-8 screening. As a result, EDTA, NaCl and glycerol were added to the Tris–HCl buffer solution, and its pH value was set to 8.0. After dissolving the intact 4-dye probe (1) in that way prepared buffer, the emission responses of all four fluorophores were monitored within 45 min of incubation at 37 °C.

[7] = target: T4, Caspase-8 (human, recombinant, active) (Homo sapiens, UniProt Q14790); experiment: Single protease detection with the triple-FRET 4-dye probe: caspase-8; type: biochemical; details: 5 μM probe, Tris–HCl pH 8.0 with DTT 10 mM, 37 °C, 45 min, λexc 425 nm, three parallels
T4 construct: Caspase-8 (human, recombinant, active, 5000 units per mg protein); purchased Enzo Life Sciences, Inc. (New York, USA)
T4 sequence (Q14790 217-374 limits assumed): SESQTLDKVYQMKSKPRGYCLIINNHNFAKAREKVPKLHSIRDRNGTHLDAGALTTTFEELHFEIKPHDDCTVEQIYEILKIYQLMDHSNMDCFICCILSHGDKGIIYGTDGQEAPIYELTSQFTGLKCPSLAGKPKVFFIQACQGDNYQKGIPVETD
T4 sequence (Q14790 385-479 limits assumed): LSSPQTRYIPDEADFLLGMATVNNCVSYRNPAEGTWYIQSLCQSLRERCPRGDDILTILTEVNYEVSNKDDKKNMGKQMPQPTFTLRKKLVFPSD
Description: as §1, §2, §3

[8] = target: T5, caspase-8 (Homo sapiens, UniProt Q14790); experiment: LC-MS analysis of the probe cleaved by caspase-8; type: biochemical; details: LC-MS of cleavage fragments
T5 construct: Caspase-8 (human, recombinant, active, 5000 units per mg protein); purchased Enzo Life Sciences, Inc. (New York, USA)
T5 sequence (Q14790 217-374 limits assumed): as the sequence (Q14790 217-374 limits assumed) above
T5 sequence (Q14790 385-479 limits assumed): as the sequence (Q14790 385-479 limits assumed) above

[9] = target: T6, Trypsin (bovine pancreas, TPCK treated) (Bos taurus, UniProt P00760); experiment: Single protease detection with the triple-FRET 4-dye probe: trypsin; type: biochemical; details: 5 μM probe, Tris–HCl pH 8.0, 37 °C, 45 min, λexc 425 nm, three parallels
T6 construct: Trypsin (bovine pancreas, TPCK treated, ≥10 000 BAEE units per mg protein); purchased Sigma-Aldrich (Steinheim, Germany); host or cells: bovine pancreas (tissue-derived)
T6 sequence (P00760 24-246): T3 sequence (P00760 24-246)
Description: as §1, §2, §3

[10] = 16 min vs 0 min, Tris–HCl pH 8.0, 37 °C, mean of 3 parallels
[11] = 45 min vs 0 min, Tris–HCl pH 8.0, 37 °C, mean of 3 parallels

SMILES: CCN(CC)c1ccc2cc(C(=O)N[C@@H](CCCCNC(=O)COCCOCCNC(=O)[C@H](C)NC(=O)[C@H](CC(=O)O)NC(=O)[C@@H](NC(=O)[C@H](CCC(=O)O)NC(=O)[C@H](CC(C)C)NC(=O)COCCOCCNC(=O)[C@H](CCCCNC(=O)CN(C)C(=O)c3ccccc3-c3c4ccc(=O)cc-4oc4cc(O)ccc34)NC(=O)COCCOCCNC(=O)[C@H](C)NC(=O)[C@H](CCCCN)NC(=O)[C@H](C)NC(=O)COCCOCCNC(=O)[C@H](CCCCNC(=O)CN(C)C(=O)c3ccccc3-c3c4ccc(=[N+](CC)CC)cc-4oc4cc(N(CC)CC)ccc34)NC(=O)COCCOCCNC(=O)[C@H](C)NC(=O)[C@H](Cc3ccccc3)NC(=O)[C@H](C)NC(=O)COCCOCCNC(=O)CN(C)C(=O)c3ccccc3-c3c4ccc(=[N+](CC)CC)cc-4oc4c3CCc3cc(N(C)C)ccc3-4)[C@@H](C)O)C(=O)O)c(=O)oc2c1 [4-dye probe (1)] (X1-[Sar][AEEA]AFA[AEEA]K([Sar-RhodamineB])[AEEA]AKA[AEEA]K([Sar-X2])[AEEA]LETDA[AEEA]-X3)
- stability on storage (comparable LC-MS chromatograms and peak areas) [1]: at least 30 days
- lowest detectable concentration of chymotrypsin [2]: 0.2 µg/mL
- solubility [3]: ≥ 500 µM
- sites of the probe cleaved by chymotrypsin [4]: both chymotrypsin and trypsin linkers were cleaved
- sites of the probe cleaved by trypsin [5]: cleave only their own recognizable sites
- fluorescence intensities of all four dyes during incubation in buffer (stability in buffer) ([6]; Tris–HCl pH 8.0 with NaCl, EDTA, glycerol, 37 °C, 45 min): practically unchanged
- DEAC (I16/I0) [6, 10]: 1.03
- DEAC(I16/I0)/FL(I16/I0) [6, 10]: 0.99
- FL (I16/I0) [6, 10]: 1.04
- HN6 (I16/I0) [6, 10]: 0.97
- DEAC (I45/I0) [6, 11]: 1.05
- DEAC(I45/I0)/FL(I45/I0) [6, 11]: 0.97
- FL (I45/I0) [6, 11]: 1.08
- HN6 (I45/I0) [6, 11]: 0.97
- lowest detectable concentration of caspase-8 [7]: 2 U mL^−1
- sites of the probe cleaved by caspase-8 [8]: cleave only their own recognizable sites
- lowest detectable concentration of trypsin [9]: 0.5 ng/mL
